Test results reported in PMC8584998, “Arabidopsis FHY3 and FAR1 Function in Age Gating of Leaf Senescence”.

Biological target: T1, MBP-EIN3N (UniProt O24606 141-352)
T1 sequence: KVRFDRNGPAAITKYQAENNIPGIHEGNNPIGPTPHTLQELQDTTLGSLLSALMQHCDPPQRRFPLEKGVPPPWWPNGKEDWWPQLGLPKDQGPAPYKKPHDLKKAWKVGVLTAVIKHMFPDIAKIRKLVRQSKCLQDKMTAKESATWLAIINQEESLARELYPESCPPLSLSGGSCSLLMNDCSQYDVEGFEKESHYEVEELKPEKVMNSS
Assay: EMSA; LightShift Chemiluminescent EMSA kit (Pierce), 10 min at room temperature, 6% native polyacrylamide gel; buffer, salt and pH not stated
Conditions: protein: recombinant; tags: MBP; chain copies: 2; label: biotin; blunt

B1: ORE1 EBS (dsDNA)
DNA 1: ATACTTTACAAGGTTCATGCATGCATAC
DNA 2: GTATGCATGCATGAACCTTGTAAAGTAT
Question: Does B1 bind?
Answer: Result: binds
